Source: patent US20120276019

Assays:
[1] = target: recombinant α-synuclein, full length (1-140 AA) (rPeptide) (UniProt P37840)
[2] = target: recombinant α-synuclein 1-95 (1-95 AA) (GenWay Biotech) (UniProt P37840)

Chain of porcine pancreas derived KLK1 (chain, as listed by the source): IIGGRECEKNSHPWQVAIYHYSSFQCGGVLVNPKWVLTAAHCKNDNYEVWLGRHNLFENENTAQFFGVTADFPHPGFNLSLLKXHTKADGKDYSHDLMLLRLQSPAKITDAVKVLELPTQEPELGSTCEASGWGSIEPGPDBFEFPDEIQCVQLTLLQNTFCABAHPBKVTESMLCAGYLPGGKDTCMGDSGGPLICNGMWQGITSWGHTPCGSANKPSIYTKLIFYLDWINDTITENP

porcine pancreas derived KLK1
degradation (cleavage) of α-synuclein, Western blot after 24 hours at 37° C., 100 nM KLK1 + 2.5 µM α-synuclein [1]: After 24 hours of treatment, all detectable α-synuclein was degraded by KLK1 | degradation (cleavage) of α-synuclein 1-95, Western blot after 3 hours at 37° C., 1 mM KLK1 + 250 µg/ml α-synuclein 1-95 [2]: After 3 hours of treatment, all detectable α-synuclein 1-95 was degraded by KLK1
